Laboratory results taken from patent US20250034219A1 (MOZZA FOODS, published 2025).

T1: recombinant B. taurus αS1-casein expressed from pMOZ1066 (GY1 signal peptide, αS1-casein, FLAG tag, 6 histidine tag, HDEL peptide)
T1 sequence: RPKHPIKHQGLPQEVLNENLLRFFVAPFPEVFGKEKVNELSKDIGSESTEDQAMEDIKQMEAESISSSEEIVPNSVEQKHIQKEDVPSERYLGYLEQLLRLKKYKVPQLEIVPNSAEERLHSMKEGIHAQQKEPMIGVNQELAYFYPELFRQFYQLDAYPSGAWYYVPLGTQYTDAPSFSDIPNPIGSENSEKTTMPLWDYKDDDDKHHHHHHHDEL

T2: recombinant B. taurus β-casein expressed from pMOZ1066 (GY1 signal peptide, β-casein, FLAG tag, 6 histidine tag, HDEL peptide)
T2 sequence: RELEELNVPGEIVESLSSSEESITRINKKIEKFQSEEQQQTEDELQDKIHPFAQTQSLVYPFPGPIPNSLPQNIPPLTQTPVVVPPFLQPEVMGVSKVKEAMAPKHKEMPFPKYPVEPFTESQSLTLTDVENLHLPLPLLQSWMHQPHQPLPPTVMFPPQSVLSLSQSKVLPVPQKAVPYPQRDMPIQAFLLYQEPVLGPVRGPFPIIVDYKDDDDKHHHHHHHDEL

T3: recombinant B. taurus Beta Casein expressed from pMOZ702 (signal peptide, beta casein, HA tag, 6 histidine tag, HDEL peptide)
T3 chain: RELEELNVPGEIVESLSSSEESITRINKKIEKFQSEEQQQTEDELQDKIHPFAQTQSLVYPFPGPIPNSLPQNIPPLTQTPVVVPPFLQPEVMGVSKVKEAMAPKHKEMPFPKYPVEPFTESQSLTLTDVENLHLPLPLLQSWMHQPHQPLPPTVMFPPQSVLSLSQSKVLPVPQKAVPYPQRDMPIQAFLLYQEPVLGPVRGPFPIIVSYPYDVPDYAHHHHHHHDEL

T4: recombinant B. taurus Beta Casein expressed from pMOZ702 (signal peptide, beta casein, HA tag, 6 histidine tag, HDEL peptide)
T4 sequence: T3 chain

T5: recombinant B. taurus αS1-casein expressed from pMOZ1066 (GY1 signal peptide, αS1-casein, FLAG tag, 6 … (B. taurus))
T5 construct: also called Alpha S1 casein; alphaS1 casein
T5 chain: T1 sequence

B1: recombinant H. sapiens Fam20C expressed from pMOZ11 (protein)
chain: LDLLPRLERRGARPSGEPGCSCAQPAAEVAAPGWAQVRGRPGEPPAASSAAGDAGWPNKHTLRILQDFSSDPSSNLSSHSLEKLPPAAEPAERALRGRDPGALRPHDPAHRPLLRDPGPRRSESPPGPGGDASLLARLFEHPLYRVAVPPLTEEDVLFNVNSDTRLSPKAAENPDWPHAGAEGAEFLSPGEAAVDSYPNWLKFHIGINRYELYSRHNPAIEALLHDLSSQRITSVAMKSGGTQLKLIMTFQNYGQALFKPMKQTREQETPPDFFYFSDYERHNAEIAAFHLDRILDFRRVPPVAGRMVNMTKEIRDVTRDKKLWRTFFISPANNICFYGECSYYCSTEHALCGKPDQIEGSLAAFLPDLSLAKRKTWRNPWRRSYHKRKKAEWEVDPDYCEEVKQTPPYDSSHRILDVMDMTIFDFLMGNMDRHHYETFEKFGNETFIIHLDNGRGFGKYSHDELSILVPLQQCCRIRKSTYLRLQLLAKEEYKLSLLMAESLRGDQVAPVLYQPHLEALDRRLRVVLKAVRDCVERNGLHSVVDDDLDTEHRAASARHDEL
B2: recombinant H. sapiens Fam20A expressed from pMOZ12 (protein)
chain: QLRPRERPRGCPCTGRASSLARDSAAAASDPGTIVHNFSRTEPRTEPAGGSHSGSSSKLQALFAHPLYNVPEEPPLLGAEDSLLASQEALRYYRRKVARWNRRHKMYREQMNLTSLDPPLQLRLEASWVQFHLGINRHGLYSRSSPVVSKLLQDMRHFPTISADYSQDEKALLGACDCTQIVKPSGVHLKLVLRFSDFGKAMFKPMRQQRDEETPVDFFYFIDFQRHNAEIAAFHLDRILDFRRVPPTVGRIVNVTKEILEVTKNEILQSVFFVSPASNVCFFAKCPYMCKTEYAVCGNPHLLEGSLSAFLPSLNLAPRLSVPNPWIRSYTLAGKEEWEVNPLYCDTVKQIYPYNNSQRLLNVIDMAIFDFLIGNMDRHHYEMFTKFGDDGFLIHLDNARGFGRHSHDEISILSPLSQCCMIKKKTLLHLQLLAQADYRLSDVMRESLLEDQLSPVLTEPHLLALDRRLQTILRTVEGCIVAHGQQSVIVDGPVEQLAPDSGQANLTSHDEL
B3: recombinant B. taurus Fam20C expressed from pMOZ14 (enzyme, from a related filing)
chain: MLLPKLERSAARPSGEPGCSCAQPAAEAAAPGWAQARGHPGGELEAAASAAGDAGWPNKHTLRILQDFSSDPSSNLTSHSLEKLPPAAEAAEGAPPGQDPGVRRPPDPAHRPLPRDPGPRGPVLPPGLSGDGSLLTRLFQHPLYQVPIPPLTEGDVLFNVNSDIRFNPKAATAENPDWPHEGPEDEFLPTGEAAVDSYPNWLKFHIGINRYELYSRHNPAVGALLQDLGTQKITSVAMKSGGTQLKLIMTFQNYGQALFKPMKQTREQETPPDFFYFSDYERHNAEIAAFHLDRILDFRRVPPVAGRLVNMTKEIRDVTRDKKLWRTFFISPANNVCFYGECSYYCSTEHALCGKPDQIEGSLAAFLPDLALAKRKTWRNPWRRSYHKRKKAEWEVDPDYCEEVRQTPPYDSSHRLLDVMDMTIFDFLMGNMDRHHYETFEKFGNETFIIHLDNGRGFGKHSHDELSILVPLQQCCRIRRSTYLRLQLLAQEEHRLSLLMAEALRADRVAPVLFQPHLEALDRRLRIVLRAVGDCVEKDGLHSVVEDDLGPEHRAAAGRHDEL
B4: recombinant B. taurus Fam20A expressed from pMOZ15 (enzyme, from a related filing)
chain: MHVSSHLGPRVRSRLQPRERPLGCPCARRAASPAPGPAPSAPRRVEPSGGGDPGSKLRALFAHPLYNEPEEPPLLGPEDSLLAGPEALRYYRRKVARWNRRRKMYKEQLNLTSPEPPVQLRQEASWVQFHLGINRHGLYPRSSPVVSKLLQDMRHFPTISADYSQDEKALLGACDCSQIVKPSGVHLKLVLRFSDFGKAMFKPMRQQRDEETPEDFFYFIDFQRHNAEIAAFHLDRILDFRRVPPTVGRLVNVTREILEVTRNEILQSVFFVSPANNVCFFAKCPYMCKTEYAVCGSPHLLEGSLSAFLPSLNLAPRFSMPSPWIRSYSLAGREEWEVNPLYCEAVKQAYPHNSSSRLLNIIDMAIFDFLIGNMDRHHYEMFTKFGEDGFLIHLDNARGFGRHSHDEVSILAPLFQCCRIKRKTLLHLQLLAQADYRLSDVMRESLLEDQLSPVLTEPHLLALDRRLQTVLRTVQDCIEAHGEQSVVADGPVGQWAPDSSRANATSHDEL
B5: recombinant B. taurus β-casein expressed from pMOZ1066 (GY1 signal peptide, β-casein, FLAG tag, 6 histidine tag, HDEL peptide) (other)
chain: T2 sequence
modifications: S50-p (phosphosite detected by mass spectrometry in 1066 milk; numbering not stated)
notes: Co-expressed with BtFam20C in soybean; also called Beta casein

Experiments:
[1] = test system: T1, recombinant B. taurus αS1-casein expressed from pMOZ1066 (GY1 signal peptide, αS1-casein, FLAG tag, 6 histidine tag, HDEL peptide)
[2] = test system: T2, recombinant B. taurus β-casein expressed from pMOZ1066 (GY1 signal peptide, β-casein, FLAG tag, 6 histidine tag, HDEL peptide)
[3] = biological target: T3, recombinant B. taurus Beta Casein …
[4] = test system: T4, recombinant B. taurus Beta Casein expressed from pMOZ702 (signal peptide, beta casein, HA tag, 6 histidine tag, HDEL peptide); remark: listed apart in the source
[5] = biological target: T5, recombinant B. taurus αS1-casein …; test: TEM with FLAG immunogold labelling of soy embryos; micelle of αS1, β and κ casein in vivo

| Molecule | upward band shift of beta casein on anti-beta-casein Western blot (2 human kinases together, pMOZ702+pMOZ11+pMOZ12) [3] | upward band shift of beta casein on anti-beta-casein Western blot (co-expressed with HsFam20C and HsFam20A together, pMOZ702+pMOZ11+pMOZ12) [3] | upward band shift of beta casein on anti-beta-casein Western blot (2 bovine kinases together, pMOZ702+pMOZ14+pMOZ15) [4] | also measured |
| --- | --- | --- | --- | --- |
| recombinant B. taurus Fam20C expressed from pMOZ1066 |  |  |  | phosphorylation by mass spectrometry in 1066 milk [1]: Phosphorylation of alphaSI casein was not detected in 1066 milk (data not shown); phosphosite detected by mass spectrometry in 1066 milk [2]: only one phosphosite S50-p was detected to be phosphorylated in beta casein in both 1066 milk and raw milk (data not shown) |
| B1 | In lanes containing beta casein coexpressed with 1 human kinase, 2 human kinases, 1 bovine kinase or 2 bovine kinases the bands are shifted upward on the gel relative to the sample transformed with only beta casein | In lanes containing beta casein coexpressed with 2 human kinases the bands are shifted upward on the gel relative to the sample transformed with only beta casein |  |  |
| B2 | In lanes containing beta casein coexpressed with 1 human kinase, 2 human kinases, 1 bovine kinase or 2 bovine kinases the bands are shifted upward on the gel relative to the sample transformed with only beta casein | In lanes containing beta casein coexpressed with 2 human kinases the bands are shifted upward on the gel relative to the sample transformed with only beta casein |  |  |
| B3 |  |  | In lanes containing beta casein coexpressed with 1 human kinase, 2 human kinases, 1 bovine kinase or 2 bovine kinases the bands are shifted upward on the gel relative to the sample transformed with only beta casein |  |
| B4 |  |  | In lanes containing beta casein coexpressed with 1 human kinase, 2 human kinases, 1 bovine kinase or 2 bovine kinases the bands are shifted upward on the gel relative to the sample transformed with only beta casein |  |
| B5 |  |  |  | binding result [5]: binds |
